Results as given in paper PMC6337079, “Exploring Novel Functions of the Small GTPase Ypt1p under Heat-Shock by Characterizing a Temperature-Sensitive Mutant Yeast Strain, ypt1-G80D” (International Journal of Molecular Sciences, 2019).

B1: Ypt1p (purified bacterially expressed recombinant) (natural protein)
chain: not shown
notes: Ypt1p, Rab family small GTPase of Saccharomyces cerevisiae, from the plasmid pGEX-YPT1; monomer printed as 23.5 kDa; also called native Ypt1p; wild-type Ypt1p; source: E. coli BL21(DE3)pLysS, purified (GSH-agarose, thrombin cleavage, TSK heparin-5PW HPLC, ATP-agarose)
B2: Ypt1p^G80D (purified bacterially expressed recombinant) (natural protein)
chain: not shown
notes: Ypt1p of Saccharomyces cerevisiae with G80D, from the plasmid pGEX-ypt1^G80D (pGEX-2T, BamHI/HindIII insert); source: E. coli BL21(DE3)pLysS, purified (GSH-agarose, thrombin cleavage, TSK heparin-5PW HPLC, ATP-agarose)

Target: the molecule itself
Assay: native gel or EMSA; purified protein (3 μg/μL) incubated at 25 °C or 45 °C for 30 min, native-PAGE, silver-stained; self-association

| Protein | binding result |
| --- | --- |
| B1 | binds |
| B2 | binds |
